T1: FcγRIIA^131H (human, UniProt P12318 34-217, biotin-labeled)
T1 construct: extracellular domain; Bought protein; also called RIIAH
T1 sequence (looked up): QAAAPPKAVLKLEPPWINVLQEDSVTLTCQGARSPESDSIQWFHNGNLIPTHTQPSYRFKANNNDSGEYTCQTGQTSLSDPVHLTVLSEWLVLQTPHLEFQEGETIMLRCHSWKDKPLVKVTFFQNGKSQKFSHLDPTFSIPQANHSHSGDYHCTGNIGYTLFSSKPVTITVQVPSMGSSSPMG

T2: FcγRIIA^131R (human, UniProt P12318 34-217, biotin-labeled)
T2 construct: extracellular domain; Bought protein; also called RIIAR
T2 sequence (looked up): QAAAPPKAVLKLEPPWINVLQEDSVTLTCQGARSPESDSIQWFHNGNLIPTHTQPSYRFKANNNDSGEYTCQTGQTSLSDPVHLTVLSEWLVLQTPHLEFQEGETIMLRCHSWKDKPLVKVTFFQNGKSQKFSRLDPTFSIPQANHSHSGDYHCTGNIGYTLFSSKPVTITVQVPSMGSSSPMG

T3: FcγRIIB (human, UniProt P31994 43-217, biotin-labeled)
T3 construct: extracellular domain; Bought protein; also called CD32b
T3 sequence (looked up): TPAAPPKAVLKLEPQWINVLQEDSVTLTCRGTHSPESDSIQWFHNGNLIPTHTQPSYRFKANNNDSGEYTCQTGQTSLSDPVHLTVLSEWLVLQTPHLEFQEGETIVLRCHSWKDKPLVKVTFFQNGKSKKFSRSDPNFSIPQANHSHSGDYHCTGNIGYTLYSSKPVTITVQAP


Tests used:
[1] = molecular target: T4, FcγRI (human, UniProt P12314 16-292, biotin-labeled); experiment: ELISA, coated antibody, biotin-FcγR;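 on Absorbance value: antibody coated at 2 µg/mL at 100 µL per well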
T4 construct: extracellular domain; Bought protein; also called CD64

[2] = molecular target: T1, FcγRIIA^131H; experiment: ELISA, coated antibody, biotin-FcγR;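 on Absorbance value: antibody coated at 2 µg/mL at 100 µL per well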
[3] = molecular target: T2, FcγRIIA^131R; experiment: ELISA, coated antibody, biotin-FcγR;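 on Absorbance value: antibody coated at 2 µg/mL at 100 µL per well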
[4] = molecular target: T3, FcγRIIB; experiment: ELISA, coated antibody, biotin-FcγR;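 on Absorbance value: antibody coated at 2 µg/mL at 100 µL per well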
[5] = molecular target: T5, FcγRIIIA^158F (human, UniProt P08637 17-208, biotin-labeled); experiment: ELISA, coated antibody, biotin-FcγR;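 on Absorbance value: antibody coated at 2 µg/mL at 100 µL per well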
T5 construct: extracellular domain; Bought protein; also called RIIIAF

[6] = molecular target: T6, FcγRIIIA^158V (human, UniProt P08637 17-208, biotin-labeled); experiment: ELISA, coated antibody, biotin-FcγR;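 on Absorbance value: antibody coated at 2 µg/mL at 100 µL per well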
T6 construct: extracellular domain; Bought protein; also called RIIIAV; CD16a 158V

[7] = molecular target: T3, FcγRIIB; experiment: ELISA; relative affinity to FcγRIIB over that to FcγRIIA131R
Protocol: One hundred μl (2 μg/mL) of antibody or mutant thereof were added to the enzyme-linked plate to be coated overnight, then the supernatant was discarded. The plate was blocked with PBS containing 1% BSA for 2 hours, and washed with PBST (PBS containing 0.05% Tween 20). Biotin-labeled FcγR extracellular domain protein (Beijing Sino Biological Co., Ltd) of appropriate concentration was added and incubated at room temperature for 1 hour, then the supernatant was discarded and the plate was washed with PBST. The Biotin-labeled protein was detected by incubating with Streptavidin-HRP (BD BioSciences) at room temperature for 1 hour. The supernatant was removed, and the color-developing solution was added for color development for 20-40 minutes to determine the absorbance of 650 nm (A650).
Anti-human OX40 antibodies containing these new Fc mutation combinations are expressed and the binding property of the mutant antibody to FcγR are analyzed by Enzyme-linked immunosorbent assay (ELISA).

T5 sequence (P08637 17-208): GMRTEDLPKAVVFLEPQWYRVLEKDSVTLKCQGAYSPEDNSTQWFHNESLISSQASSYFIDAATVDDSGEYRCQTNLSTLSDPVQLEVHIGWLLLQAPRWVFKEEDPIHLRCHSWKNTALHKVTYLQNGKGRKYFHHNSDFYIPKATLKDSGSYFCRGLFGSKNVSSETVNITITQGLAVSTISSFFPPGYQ
T6 sequence (P08637 17-208 F176V): as the sequence (P08637 17-208) above, with F160V counted along it
T4 sequence (P12314 16-292): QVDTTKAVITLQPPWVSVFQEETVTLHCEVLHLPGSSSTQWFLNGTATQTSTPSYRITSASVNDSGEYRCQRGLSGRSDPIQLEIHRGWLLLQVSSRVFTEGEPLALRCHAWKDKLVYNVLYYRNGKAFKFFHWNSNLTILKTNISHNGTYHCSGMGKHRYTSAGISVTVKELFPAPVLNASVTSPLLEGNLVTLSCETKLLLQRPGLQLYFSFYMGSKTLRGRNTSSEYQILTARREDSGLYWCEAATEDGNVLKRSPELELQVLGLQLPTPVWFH

Row | Absorbance value [1] | Relative binding affinity RI/G1 [1] | Absorbance value [2] | Relative binding affinity RIIAH/G1 [2] | Absorbance value [3] | Relative binding affinity RIIAR/G1 [3] | Absorbance value [4] | Increased factor of RIIB binding compared with wild-type IgG2 [4] | Relative binding affinity RIIB/G1 [4] | Absorbance value [5] | Relative binding affinity RIIIAF/G1 [5] | Absorbance value [6] | Relative binding affinity RIIIAV/G1 [6] | RIIB/RIIAR [7] | Binder
1 | 0.14 A650 | 0.05 ratio | 0.38 A650 | 0.67 ratio | 0.26 A650 | 1 ratio | 0.78 A650 | 10.4 fold | 1.04 ratio | 0.09 A650 | 0.47 ratio | 0.08 A650 | 0.09 ratio | 1.03 ratio | anti-human OX40 IgG2 antibody Mut_18 (P233G/S267E) (antibody, Substitutions in Eu numbering; entries include an unstated signal peptide) heavy: QVQLQESGPGLVKPSGTLSLTCAVSGGSISSSIWWSWVRQPPGKGLEWIGEIHHSGNTNCNPSLKSRVTISIDKSKNQFSLKLTSVTAADTAVYYCARAGTGTTLDYWGQGTLVTVSSASTKGPSVFPLAPCSRSTSESTAALGCLVKDYFPEPVTVSWNSGALTSGVHTFPAVLQSSGLYSLSSVVTVPSSNFGTQTYTCNVDHKPSNTKVDKTVERKCCVECPPCPAPGVAGPSVFLFPPKPKDTLMISRTPEVTCVVVDVEHEDPEVQFNWYVDGVEVHNAKTKPREEQFNSTFRVVSVLTVVHQDWLNGKEYKCKVSNKGLPAPIEKTISKTKGQPREPQVYTLPPSREEMTKNQVSLTCLVKGFYPSDIAVEWESNGQPENNYKTTPPMLDSDGSFFLYSKLTVDKSRWQQGNVFSCSVMHEALHNHYTQKSLSLSPGK light: EIVLTQSPGTLSLSPGERATLSCRASQSVSGDYLAWYQQKLGQAPRLLIYGASIRATGIPDRFSGSGSGTDFTLTISKLEPEDFAVYYCQQYGSSPLTFGGGTKVEIKRTVAAPSVFIFPPSDEQLKSGTASVVCLLNNFYPREAKVQWKVDNALQSGNSQESVTEQDSKDSTYSLSSTLTLSKADYEKHKVYACEVTHQGLSSPVTKSFNRGEC
2 | 0.11 A650 | 0.04 ratio | 0.33 A650 | 0.58 ratio | 0.28 A650 | 1.08 ratio | 0.82 A650 | 11 fold | 1.09 ratio | 0.07 A650 | 0.38 ratio | 0.07 A650 | 0.07 ratio | 1 ratio | anti-human OX40 IgG2 antibody Mut_19 (V266L/S267E/H268S/E269V/P271C) (antibody, name in EU numbering, Substitutions in Eu numbering; entries include an unstated signal peptide) heavy: QVQLQESGPGLVKPSGTLSLTCAVSGGSISSSIWWSWVRQPPGKGLEWIGEIHHSGNTNCNPSLKSRVTISIDKSKNQFSLKLTSVTAADTAVYYCARAGTGTTLDYWGQGTLVTVSSASTKGPSVFPLAPCSRSTSESTAALGCLVKDYFPEPVTVSWNSGALTSGVHTFPAVLQSSGLYSLSSVVTVPSSNFGTQTYTCNVDHKPSNTKVDKTVERKCCVECPPCPAPPVAGPSVFLFPPKPKDTLMISRTPEVTCVVVDLESVDCEVQFNWYVDGVEVHNAKTKPREEQFNSTFRVVSVLTVVHQDWLNGKEYKCKVSNKGLPAPIEKTISKTKGQPREPQVYTLPPSREEMTKNQVSLTCLVKGFYPSDIAVEWESNGQPENNYKTTPPMLDSDGSFFLYSKLTVDKSRWQQGNVFSCSVMHEALHNHYTQKSLSLSPGK light: EIVLTQSPGTLSLSPGERATLSCRASQSVSGDYLAWYQQKLGQAPRLLIYGASIRATGIPDRFSGSGSGTDFTLTISKLEPEDFAVYYCQQYGSSPLTFGGGTKVEIKRTVAAPSVFIFPPSDEQLKSGTASVVCLLNNFYPREAKVQWKVDNALQSGNSQESVTEQDSKDSTYSLSSTLTLSKADYEKHKVYACEVTHQGLSSPVTKSFNRGEC

More lines, now with the values behind:

Row | Binder | Absorbance value [1] | Relative binding affinity RI/G1 [1] | Absorbance value [2] | Relative binding affinity RIIAH/G1 [2] | Absorbance value [3] | Relative binding affinity RIIAR/G1 [3] | Absorbance value [4] | Increased factor of RIIB binding compared with wild-type IgG2 [4] | Relative binding affinity RIIB/G1 [4] | Absorbance value [5] | Relative binding affinity RIIIAF/G1 [5] | Absorbance value [6] | Relative binding affinity RIIIAV/G1 [6] | RIIB/RIIAR [7]
3 | anti-human OX40 IgG2 antibody Mut_15 (V234Q/A235G/P238L/S239V/G327A/L328E/A330S/I332T) (antibody, Substitutions in Eu numbering; entries include an unstated signal peptide) heavy: QVQLQESGPGLVKPSGTLSLTCAVSGGSISSSIWWSWVRQPPGKGLEWIGEIHHSGNTNCNPSLKSRVTISIDKSKNQFSLKLTSVTAADTAVYYCARAGTGTTLDYWGQGTLVTVSSASTKGPSVFPLAPCSRSTSESTAALGCLVKDYFPEPVTVSWNSGALTSGVHTFPAVLQSSGLYSLSSVVTVPSSNFGTQTYTCNVDHKPSNTKVDKTVERKCCVECPPCPAPPQGGLVVFLFPPKPKDTLMISRTPEVTCVVVDVSHEDPEVQFNWYVDGVEVHNAKTKPREEQFNSTFRVVSVLTVVHQDWLNGKEYKCKVSNKAEPSPTEKTISKTKGQPREPQVYTLPPSREEMTKNQVSLTCLVKGFYPSDIAVEWESNGQPENNYKTTPPMLDSDGSFFLYSKLTVDKSRWQQGNVFSCSVMHEALHNHYTQKSLSLSPGK light: EIVLTQSPGTLSLSPGERATLSCRASQSVSGDYLAWYQQKLGQAPRLLIYGASIRATGIPDRFSGSGSGTDFTLTISKLEPEDFAVYYCQQYGSSPLTFGGGTKVEIKRTVAAPSVFIFPPSDEQLKSGTASVVCLLNNFYPREAKVQWKVDNALQSGNSQESVTEQDSKDSTYSLSSTLTLSKADYEKHKVYACEVTHQGLSSPVTKSFNRGEC | 0.08 A650 | 0.03 ratio | 0.04 A650 | 0.07 ratio | 0.04 A650 | 0.17 ratio | 0.47 A650 | 6.21 fold | 0.62 ratio | 0.06 A650 | 0.31 ratio | 0.05 A650 | 0.06 ratio | 3.67 ratio
4 | anti-human OX40 IgG2 antibody Mut_16 (S267E/S298G) (antibody, name in EU numbering, Substitutions in Eu numbering; entries include an unstated signal peptide) heavy: QVQLQESGPGLVKPSGTLSLTCAVSGGSISSSIWWSWVRQPPGKGLEWIGEIHHSGNTNCNPSLKSRVTISIDKSKNQFSLKLTSVTAADTAVYYCARAGTGTTLDYWGQGTLVTVSSASTKGPSVFPLAPCSRSTSESTAALGCLVKDYFPEPVTVSWNSGALTSGVHTFPAVLQSSGLYSLSSVVTVPSSNFGTQTYTCNVDHKPSNTKVDKTVERKCCVECPPCPAPPVAGPSVFLFPPKPKDTLMISRTPEVTCVVVDVEHEDPEVQFNWYVDGVEVHNAKTKPREEQFNGTFRVVSVLTVVHQDWLNGKEYKCKVSNKGLPAPIEKTISKTKGQPREPQVYTLPPSREEMTKNQVSLTCLVKGFYPSDIAVEWESNGQPENNYKTTPPMLDSDGSFFLYSKLTVDKSRWQQGNVFSCSVMHEALHNHYTQKSLSLSPGK light: EIVLTQSPGTLSLSPGERATLSCRASQSVSGDYLAWYQQKLGQAPRLLIYGASIRATGIPDRFSGSGSGTDFTLTISKLEPEDFAVYYCQQYGSSPLTFGGGTKVEIKRTVAAPSVFIFPPSDEQLKSGTASVVCLLNNFYPREAKVQWKVDNALQSGNSQESVTEQDSKDSTYSLSSTLTLSKADYEKHKVYACEVTHQGLSSPVTKSFNRGEC | 0.1 A650 | 0.04 ratio | 0.39 A650 | 0.68 ratio | 0.5 A650 | 1.92 ratio | 1.09 A650 | 14.5 fold | 1.44 ratio | 0.06 A650 | 0.32 ratio | 0.06 A650 | 0.06 ratio | 0.75 ratio
5 | anti-human OX40 IgG2 antibody Mut_17 (V266L/S267E/H268S/E269V) (antibody, name in EU numbering, Substitutions in Eu numbering; entries include an unstated signal peptide) heavy: QVQLQESGPGLVKPSGTLSLTCAVSGGSISSSIWWSWVRQPPGKGLEWIGEIHHSGNTNCNPSLKSRVTISIDKSKNQFSLKLTSVTAADTAVYYCARAGTGTTLDYWGQGTLVTVSSASTKGPSVFPLAPCSRSTSESTAALGCLVKDYFPEPVTVSWNSGALTSGVHTFPAVLQSSGLYSLSSVVTVPSSNFGTQTYTCNVDHKPSNTKVDKTVERKCCVECPPCPAPPVAGPSVFLFPPKPKDTLMISRTPEVTCVVVDLESVDPEVQFNWYVDGVEVHNAKTKPREEQFNSTFRVVSVLTVVHQDWLNGKEYKCKVSNKGLPAPIEKTISKTKGQPREPQVYTLPPSREEMTKNQVSLTCLVKGFYPSDIAVEWESNGQPENNYKTTPPMLDSDGSFFLYSKLTVDKSRWQQGNVFSCSVMHEALHNHYTQKSLSLSPGK light: EIVLTQSPGTLSLSPGERATLSCRASQSVSGDYLAWYQQKLGQAPRLLIYGASIRATGIPDRFSGSGSGTDFTLTISKLEPEDFAVYYCQQYGSSPLTFGGGTKVEIKRTVAAPSVFIFPPSDEQLKSGTASVVCLLNNFYPREAKVQWKVDNALQSGNSQESVTEQDSKDSTYSLSSTLTLSKADYEKHKVYACEVTHQGLSSPVTKSFNRGEC | 0.14 A650 | 0.05 ratio | 0.54 A650 | 0.95 ratio | 0.5 A650 | 1.9 ratio | 1.19 A650 | 15.9 fold | 1.58 ratio | 0.09 A650 | 0.49 ratio | 0.06 A650 | 0.06 ratio | 0.83 ratio

Reference: patent US20230220042A1 (SHANGHAI JIAO TONG UNIVERSITY SCHOOL OF MEDICINE, published 2023)
